According to doi:10.1101/721233:

Biological target: human TrkA transmembrane domain peptide (TrkA-TM-wt) (human)
Assay: NMR structure

- stoichiometry N: 2
Substance: human TrkA transmembrane domain peptide (TrkA-TM-wt) (domain or fragment)
